Measured values as given in the DeepSol protein solubility set.

Assay: soluble on expression in E. coli; label from the status in PepcDB or PDB records

Sequence | soluble on expression in E. coli
SPGRSSSNSGSTGFISFSGVESALSSLKNFQACINSGMDTASSVALDLVESQTEVSSEYSMDKAMVEFATLDRQLNHYVKAVQSTINHVKEERPEKIPDLKLLVEKKFLALQSKNSDADFQNNEKFVQFKQQLKELKKQCGLQADREADGTEGVDEDIIVTQSQTNFTCPITKEEMKKPVKNKVCGHTYEEDAIVRMIESRQKRKKKAYCPQIGCSHTDIRKSDLIQDEALRRAIENHNKKRHRHSE | soluble
AKIDNAVLPEGSLVLVTGANGFVASHVVEQLLEHGYKVRGTARSASKLANLQKRWDAKYPGRFETAVVEDMLKQGAYDEVIKGAAGVAHIASVVSFSNKYDEVVTPAIGGTLNALRAAAATPSVKRFVLTSSTVSALIPKPNVEGIYLDEKSWNLESIDKAKTLPESDPQKSLWVYAASKTEAELAAWKFMDENKPHFTLNAVLPNYTIGTIFDPETQSGSTSGWMMSLFNGEVSPALALMPPQYYVSAVDIGLLHLGCLVLPQIERRRVYGTAGTFDWNTVLATFRKLYPSKTFPADFPDQGQDLSKFDTAPSLEILKSLGRPGWRSIEESIKDLVGSETA | soluble
MPGLPEVAPGDDLAKLIAAVEPGLVDGDVLLVTSKIVSKAEGRIVRADDREAAIDAETVRVVARRGALRIVENRQGLVMAAAGVDASNTPSGTVLLLPEDPDASARAIRDGLRDTLGVDVGVVVTDTFGRPWRTGLTDVAIGAAGVRVLDDLRGGTDAYGNPLSATVVATADELAAAGDLVKGKAAGLPVAVVRGLPHVIAGDDEAGARAMVRGGRDDMFRLGTSEAVREAVTQRRTVRAFTDEPVDPGAVRRAVAAAVTAPAPHHTTPWRFVLLESAESRTRLLDAMRDAWIADLRGDRKTEESIAKRVRRGDVLRNAPYLVVPCMVMDGSHSYGDARRDAAEREMFVVATGAGVQNFLVALAGERLGSAWVSSTMFCRDVVRRALGLPESWEPMGAVAVGHAAEEPRDRPARDAGAFIEVRLEHHHHHH | soluble
MARPLKQGIDYFPLSVDFLRDIKVRKIKRACGPYTVEILLCLLGNIYRETGYYIGWDEDTMFLVADEVGAKEGLVEETVNKAVQVGFFNQEKFNEYRILTSNGIQKRYLEATKKRKEVVISDIYLVNDTIKDEETLVNGVDNEQSKVNKSKVDKSKVNKNNKEKPAVQLSSEKDFLENPLGDKKTAELIAYYSKNVSLATPVNMTNLAYDLKDFNGDLDLLKEAINICSSNVKTYAYFAGILKQWRANGINTHADFLKKVNKKSKQKNKRDSEPPLNDYSGLF | not soluble
MHKIRVIESTLGYPQKNRMESESYEGVQTYMDMKDGSLIAVQPNKDDLMSQILSPDNLNRAYLQVVRNKGVGGVDRMDFKQLLPYLHEHKSELIESIRIGRYKPNSVRRVDIAKDNGKKRLIGIPTVVDRLIQQAIVQVLSPIYERQFSPSSFGFRPDVVRMLEHHHHHH | not soluble
MGSDKIHHHHHHMNKNEIANLKMQGFILQNDGKHFALRIKTDAGCMDSEKIDKLSEISKKYGRNYISFTVRLCVEIPWINYEDIPKIKEELKNLSLISGGTGNTVRPLVACKGTVCTHGLIDSQKICNELDSLFFGKKLPHKFKIGISGCPNNCAKAQLNDIGIIGQRIPKINEENCNGCTLCLKSCSVDAITIVDKKAVIDYEKCVNCGKCGKSCKRKCISLKDGVLISVGGKFGKKYKIGENIGIYDAPNLEKIVSEIMDYFKENADSHERFGDTIDRTGISSLKEKLKDY | not soluble
MKKTGWGILGAVAAFTGYAYWSTKHLTVTDYEILSDKIPAEWDGATFVQLSDLHSASFGLYNNPLLSIVNELAPDAVFLTGDMIDGDESPFVTMAVVRKLAKEFPVFYVSGNHEGRSAFYEDFKADMEKHHVAVLENERYFLRKDGAAIMVAGVKDPRFVRDDWAEKELPKQVWEEEALKEALDEATANLSPDYFTILLAHRPEFWPLYQAYPVDLVLSGHAHGGQFRLPLTEGLFAPGQGFMPKWTAGLHSAGGKSLIVSRGLGNVTKLPRLFNDPEIIRITLKAKGDARENLEHHHHHH | not soluble
MAYRICLIEGDGIGHEVIPAARRVLEATGLPLEFVEAEAGWETFERRGTSVPEETVEKILSCHATLFGAATSPTRKVPGFFGAIRYLRRRLDLYANVRPAKSRPVPGSRPGVDLVIVRENTEGLYVEQERRYLDVAIADAVISKKASERIGRAALRIAEGRPRKTLHIAHKANVLPLTQGLFLDTVKEVAKDFPLVNVQDIIVDNCAMQLVMRPERFDVIVTTNLLGDILSDLAAGLVGGLGLAPSGNIGDTTAVFEPVHGSAPDIAGKGIANPTAAILSAAMMLDYLGEKEAAKRVEKAVDLVLERGPRTPDLGGDATTEAFTEAVVEALKSL | soluble
